Measured values taken from US20210115124A1 (Genentech, published 2021).
Values belong to the binder of their own block, whether it stands above or below them.

Experiments:
human VEGF (hVEGF) [1] = biological target: T1, human VEGF (hVEGF) (human, UniProt P15692 181-395); experiment: SPR (FIG. 10D)
T1 construct: also called VEGF-A
T1 sequence: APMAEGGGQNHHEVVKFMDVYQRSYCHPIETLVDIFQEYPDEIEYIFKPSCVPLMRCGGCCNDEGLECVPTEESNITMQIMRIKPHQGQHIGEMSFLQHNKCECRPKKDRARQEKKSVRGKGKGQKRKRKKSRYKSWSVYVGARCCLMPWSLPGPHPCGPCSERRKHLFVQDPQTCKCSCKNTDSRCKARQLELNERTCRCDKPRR

human VEGF165 = human VEGF165 (human, UniProt P15692-4 27-191); experiment: cell-based or functional assay
human VEGF (hVEGF) [2] = biological target: T1, human VEGF (hVEGF); experiment: SPR
human VEGF (hVEGF) [3] = biological target: T1, human VEGF (hVEGF); experiment: SPR; remark: listed apart in the source
human VEGF (hVEGF) [4] = biological target: T1, human VEGF (hVEGF); experiment: SPR single-cycle
human VEGF (hVEGF) [5] = biological target: T1, human VEGF (hVEGF); experiment: SPR multiple-cycle
[6] = biological target: T2, VEGF (as used in the HUVEC migration assay) (Homo sapiens (Human), UniProt P15692 181-395); experiment: cell-based or functional assay
T2 sequence: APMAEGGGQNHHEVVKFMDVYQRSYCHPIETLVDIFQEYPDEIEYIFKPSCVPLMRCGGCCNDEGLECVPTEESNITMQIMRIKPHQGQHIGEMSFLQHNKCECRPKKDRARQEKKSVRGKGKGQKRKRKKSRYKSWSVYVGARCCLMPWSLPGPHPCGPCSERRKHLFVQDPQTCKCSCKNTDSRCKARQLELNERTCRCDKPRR

[7] = biological target: T2, VEGF (as used in the HUVEC migration …); experiment: cell-based or functional assay; remark: listed apart in the source
human VEGF (hVEGF) [8] = biological target: T1, human VEGF (hVEGF); experiment: SPR; remark: listed apart in the source
human VEGF (hVEGF) [9] = biological target: T1, human VEGF (hVEGF); experiment: SPR; remark: listed apart in the source

- fold increase in affinity (human VEGF (hVEGF) [1]): 3 fold
B1: G6.31 LC-F83V (Fab, V domains shown)
VH: EVQLVESGGGLVQPGGSLRLSCAASGFTISDYWIHWVRQAPGKGLEWVAGITPAGGYTYYADSVKGRFTISADTSKNTAYLQMNSLRAEDTAVYYCARFVFFLPYAMDYWGQGTLVTVSS
VL: DIQMTQSPSSLSASVGDRVTITCRASQDVSTAVAWYQQKPGKAPKLLIYSASFLYSGVPSRFSGSGSGTDFTLTISSLQPEDVATYYCQQGYGNPFTFGQGTKVEIK
notes: Fab

- fold increase in potency against the unconjugated parent Fab, pKDR assay (human VEGF165): ~7 fold
B2: HA100K-G6.31 AARR (other)
VH: EVQLVESGGGLVQPGGSLRLSCAASGFTISDYWIHWVRQAPGKGLEWVAGITPAGGYTRYADSVKGRFTISADTSKNTAYLQMRSLRAEDTAVYYCARFVFFLPYAMDYWGQGTLVTVSS
VL: DIQMTQSPSSLSASVGDRVTITCRASQDVSTAVAWYQQKPGKAPKLLIYSASFLYSGVPSRFSGSGSGTDFTLTISSLQPEDAATYYCQQGYGAPFTFGQGTKVEIK
modifications: free hinge cysteine of the Fab-C heavy chain linked through maleimide to linear 100 kDa hyaluronic acid

- Fold improved (relative to WT) (human VEGF (hVEGF) [2]): 0.5 fold
- Kd (human VEGF (hVEGF) [2]): 1.06 nM
- koff (human VEGF (hVEGF) [2]): 0.00169 s⁻¹
- kon (human VEGF (hVEGF) [2]): 1.59e+06 M⁻¹ s⁻¹
- Kd (human VEGF (hVEGF) [3]): 1.06 nM
- koff (human VEGF (hVEGF) [3]): 0.00169 s⁻¹
- kon (human VEGF (hVEGF) [3]): 1.56e+06 M⁻¹ s⁻¹
- Fold difference (relative to G6.31) (human VEGF (hVEGF) [4]): 0.4 fold
- Kd (human VEGF (hVEGF) [4]): 3.93 nM
- koff (human VEGF (hVEGF) [4]): 0.00131 s⁻¹
- kon (human VEGF (hVEGF) [4]): 334000 M⁻¹ s⁻¹
- Kd (human VEGF (hVEGF) [5]): 1.06 nM
- koff (human VEGF (hVEGF) [5]): 0.00169 s⁻¹
- kon (human VEGF (hVEGF) [5]): 1.59e+06 M⁻¹ s⁻¹
- IC50 relative to G6.31, VEGF-induced HUVEC migration [6]: 5.2 fold
- IC50 (read off the curve), VEGF-induced HUVEC migration [7]: ~7 nM
B3: G6.31 LC-N94A (Fab, V domains shown)
VH: EVQLVESGGGLVQPGGSLRLSCAASGFTISDYWIHWVRQAPGKGLEWVAGITPAGGYTYYADSVKGRFTISADTSKNTAYLQMNSLRAEDTAVYYCARFVFFLPYAMDYWGQGTLVTVSS
VL: DIQMTQSPSSLSASVGDRVTITCRASQDVSTAVAWYQQKPGKAPKLLIYSASFLYSGVPSRFSGSGSGTDFTLTISSLQPEDFATYYCQQGYGAPFTFGQGTKVEIK
notes: Fab

- Kd (human VEGF (hVEGF) [8]): 1.43 nM
- koff (human VEGF (hVEGF) [8]): 0.000766 s⁻¹
- kon (human VEGF (hVEGF) [8]): 537000 M⁻¹ s⁻¹
- Kd (human VEGF (hVEGF) [9]): 1.71 nM
- koff (human VEGF (hVEGF) [9]): 0.00111 s⁻¹
- kon (human VEGF (hVEGF) [9]): 648000 M⁻¹ s⁻¹
- Kd (human VEGF (hVEGF) [3]): 1.71 nM
- koff (human VEGF (hVEGF) [3]): 0.00111 s⁻¹
- kon (human VEGF (hVEGF) [3]): 648000 M⁻¹ s⁻¹
- IC50 relative to G6.31, VEGF-induced HUVEC migration [6]: 5.1 fold
B4: G6.31 LC-N94A.LC-F83A (Fab, V domains shown)
VH: EVQLVESGGGLVQPGGSLRLSCAASGFTISDYWIHWVRQAPGKGLEWVAGITPAGGYTYYADSVKGRFTISADTSKNTAYLQMNSLRAEDTAVYYCARFVFFLPYAMDYWGQGTLVTVSS
VL: DIQMTQSPSSLSASVGDRVTITCRASQDVSTAVAWYQQKPGKAPKLLIYSASFLYSGVPSRFSGSGSGTDFTLTISSLQPEDAATYYCQQGYGAPFTFGQGTKVEIK
notes: Fab; also called LC-F83A, LC-N94A; LCcombo5
